Measured values taken from patent US20090280535, “SUMO Fusion Protein Expression System for Producing Native Proteins” (Academia Sinica, published 2009).

Molecular target: T1, RecA (Escherichia coli, UniProt P0A7G6 P0A7G6:2-353)
Assay: competition; 80 uM oligo competes against 8 uM ds-PhiX174 in EMSA; no significant effect at 2, 4 or 8 uM
Conditions: tags: none (released from His6-Smt3-RecA by Ulp1 403-621 cleavage)
Method: (§1) The biological activities of the purified RecA protein was tested as follows. First, an electrophoretic mobility shift assay was performed to examine whether the RecA protein was capable of binding to DNA, following the method described in Chen et al., Proc. Natl. Acad Sci USA 101: 10572-10577 (2004). […] Six oligonucleotides, i.e., (CT)₂₀, (CA)₂₀, (GT)₂₀, (GA)₂₀, (AT)₂₀, and (CG)₂₀ described in Biet et al., Nucleic Acids Res 27:596-600 (1999), were used to determine the preference of the RecA protein for binding to double-strand (ds) or single-strand (ss) DNAs. 80 μM of each of the oligonucleotides was incubated with the RecA protein in the presence of circular ds-ΦX174 (8 μM) DNA and then a mobility shift assay was performed to examine the binding between the RecA protein and the ds- or ss-DNAs.

T1 sequence (P0A7G6 2-353, one chain of several): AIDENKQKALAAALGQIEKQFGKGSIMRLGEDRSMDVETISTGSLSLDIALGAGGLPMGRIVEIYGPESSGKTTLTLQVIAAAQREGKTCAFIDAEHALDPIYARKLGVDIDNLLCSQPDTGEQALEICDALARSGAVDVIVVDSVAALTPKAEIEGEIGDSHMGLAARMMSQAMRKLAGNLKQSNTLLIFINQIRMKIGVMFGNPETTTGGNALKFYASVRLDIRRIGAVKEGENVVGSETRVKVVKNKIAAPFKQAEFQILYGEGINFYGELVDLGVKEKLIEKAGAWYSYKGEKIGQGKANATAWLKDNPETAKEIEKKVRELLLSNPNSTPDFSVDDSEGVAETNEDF

Binding result, binds:
CTCTCTCTCTCTCTCTCTCTCTCTCTCTCTCTCTCTCTCT (ssDNA) [(CT)20]

Molecular target: T1, RecA
Assay: competition; 80 uM oligo competes against 8 uM ds-PhiX174 in EMSA
Conditions: tags: none (released from His6-Smt3-RecA by Ulp1 403-621 cleavage)
Method: as §1

Binding result, binds:
CGCGCGCGCGCGCGCGCGCGCGCGCGCGCGCGCGCGCGCG (ssDNA) [(CG)20], GAGAGAGAGAGAGAGAGAGAGAGAGAGAGAGAGAGAGAGA (ssDNA) [(GA)20], CACACACACACACACACACACACACACACACACACACACA (ssDNA) [(CA)20], GTGTGTGTGTGTGTGTGTGTGTGTGTGTGTGTGTGTGTGT (ssDNA) [(GT)20], ATATATATATATATATATATATATATATATATATATATAT (ssDNA) [(AT)20]
